{
  "source": "the nanobody polyreactivity screen of Harvey et al. (2022)",
  "data": [
    {"experiment": "yeast display, Sf9 membrane polyspecificity reagent, FACS + sequencing; frameworks hold sequencing errors", "summary_of_the_method": "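Using colony PCR, genes from sorted yeast display clones were amplified, then sequenced on MiSeq at 2 × 250 and filtered by CDR length. The clones had been stained with 10% biotinylated, detergent-solubilized Sf9 membrane reagent for 1 hour at 4 °C and sorted by FACS into low and high (top ~1%) gates on anti-HA and streptavidin fluorescence. Polyreactivity labels come from the gate of origin.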", "values": [
      {"sequence": "QVQLVESGGGLVQAGGSLRLSCAASGFTFFDNAMGWYRQAPGKERELVAAITWSDGSTYYADSVKGRFTISRDNAKNTVYLQMNSLKPEDTAVYYCAVGFISYSYSNYYDVWYEYYYWGQGTQVTVSS", "polyreactivity (PSR sort gate)": "low polyreactivity"},
      {"sequence": "QVQLVESGGGLVQAGGSLRLSCAASGFTFFFNAMGWYRQAPGKERELVASIRSDGDTNYADSVKGRFTISRDNAKNTVYLQMNSLKPEDTAVYYCAKVWYVFRYVSTEYDYWGQGTQVTVSS", "polyreactivity (PSR sort gate)": "high polyreactivity"},
      {"sequence": "QVQLVESGGGLVQAGGSLRLSCAASGFTFFFYAMGWYRQAPGKVRELVAGISQSGGNTNYADSVKGRFTISRDNAKNTVYLQMNSLKPEDTAVYYCAKTRYQYWRVTAFDYWGQGTQVTVSS", "polyreactivity (PSR sort gate)": "low polyreactivity"},
      {"sequence": "QVQLVESGGGLVQAGGSLRLSCAASGFTFFGYAMGWYRQAPGKERELVATISDTGGSTYADSVKGRFTISRDNAKNTVYLQMNSLKPEDTAVYYFNARSVFYSMDYWGQGTQVTVSS", "polyreactivity (PSR sort gate)": "low polyreactivity"},
      {"sequence": "QVQLVESGGGLVQAGGSLRLSCAASGFTFFIYVMGWYRQAPGKEREYVAAISSSGDSTYYADSVKGRFTISRDNAKNTVYLQMNSLIPEDTAVYYCNAGDKVSSYWYDYWGQGTQVTVSS", "polyreactivity (PSR sort gate)": "low polyreactivity"},
      {"sequence": "QVQLVESGGGLVQAGGSLRLSCAASGFTFFPYAMGWYRQAPGKEREFVAANFSDGSTYYADSVKGRFTISRDNAKNTVYLQINILKPEDTAVYYWAAAWYEQAYQTGYFEFDYWGLGTQVTVSS", "polyreactivity (PSR sort gate)": "low polyreactivity"},
      {"sequence": "QVQLVESGGGLVQAGGSLRLSCAASGFTFFSNAMGWYREAPGQERELVASITNDGSTYADSVKGRFTISRDNAKNTVYLQMNSLKPEDTAVYYCAARFPQWRYSRRTCERFDYWGQGTQVTVSS", "polyreactivity (PSR sort gate)": "low polyreactivity"},
      {"sequence": "QVQLVESGGGLVQAGGSLRLSCAASGFTFFSNAMGWYRQAPGKERELVASISASGSGTYYADSVKGRFTISRDNAKNTVYLQMNSLKPEDTAVYYCAAQYRVNARSGVYRGYRYNYWGQGTQVTVSS", "polyreactivity (PSR sort gate)": "high polyreactivity"},
      {"sequence": "QVQLVESGGGLVQAGGSLRLSCAASGFTFFTNAMGWYRQAPGKEREFVAAISKSGSRTYYADSVKGRFTISRDNAKNTVYLQMNSLKPEDTAVYYCAAGYVTLFGFYRYYLWGQGTQVTVSS", "polyreactivity (PSR sort gate)": "high polyreactivity"},
      {"sequence": "QVQLVESGGGLVQAGGSLRLSCAASGFTFFVYAMGWYRKAPGKERELVATINWSGASTYYADSVKGRFTISRDNAKNTVYLQMNSLKPEDTAVYYCDKDGHYPLVYLAFDYWGQGTQVTVSS", "polyreactivity (PSR sort gate)": "low polyreactivity"},
      {"sequence": "QVQLVESGGGLVQAGGSLRLSCAASGFTFFVYGMGWYRQAPGKERELVATINWSGASTYYADSVKGRFTISRDNAKNTVYLQMNSLKPEDTAVYSCAKDGHYPLVYLAFDYWGQGTQVTVSS", "polyreactivity (PSR sort gate)": "low polyreactivity"},
      {"sequence": "QVQLVESGGGLVQAGGSLRLSCAASGFTFGANVMGWYRPAPGKERELVAGITWSGDSTYYADSVKGRFTISRDNAKNTVYLQMNSLKPEDTAVYYCAADVYDGEYILDYDYWGQGTQVTVSS", "polyreactivity (PSR sort gate)": "low polyreactivity"},
      {"sequence": "QVQLVESGGGLVQAGGSLRLSCAASGFTFGDNAMGWYRQAPGKERELVAAITSTGGSTNYADSVKGRFTISRDNAKNTVYLQINSLKPEDTAVYYCAAEWLYPHDGGYPRPMDYWGQGTQVTVSS", "polyreactivity (PSR sort gate)": "low polyreactivity"},
      {"sequence": "QVQLVESGGGLVQAGGSLRLSCAASGFTFGDYVMGWYRQAPGKERELVAAITTSGTRTSYADSVKGRFTISRDNAKNTVYLQMNSLKPEDTAVYYCAAEHTNYYYFWQAHYYWGQGTQVTVSS", "polyreactivity (PSR sort gate)": "high polyreactivity"},
      {"sequence": "QVQLVESGGGLVQAGGSLRLSCAASGFTFGGNAMGWYRQAPGKEREFVAAITRSGGSTYYADSVKGRFTISRDNAKNTVYLQMHSLKPEDTAVYYCAARRSYPLGYDYWGQGTQVTVSS", "polyreactivity (PSR sort gate)": "high polyreactivity"},
      {"sequence": "QVQLVESGGGLVQAGGSLRLSCAASGFTFGGNTMGWYRQAPGKERELVAAITQGGSSTYYADSVKGRFTISRDNAKNTVYLQMNSLKPEDTAVYYCNRGSPFGGLRPYDYWGQGTQVTVSS", "polyreactivity (PSR sort gate)": "high polyreactivity"},
      {"sequence": "QVQLVESGGGLVQAGGSLRLSCAASGFTFGGYAMGWYRQAPGKERELVAAINWSGGSTDYADSVKGRFTISRDIAKNTVYLQMNSLKPEDTAVYYCAAEGQDGRFYWGQGTQVTVSS", "polyreactivity (PSR sort gate)": "low polyreactivity"},
      {"sequence": "QVQLVESGGGLVQAGGSLRLSCAASGFTFGGYAMGWYRQAPGKERELVAAISRSGGSTSYADSVKGRFTISRDNAKNTVYLQMNSLKPEDTAVYYCATLWTTKYWGQGTQVTVSS", "polyreactivity (PSR sort gate)": "high polyreactivity"},
      {"sequence": "QVQLVESGGGLVQAGGSLRLSCAASGFTFGGYAMGWYRQAPGKERGLVAAISGSGGRTYYADSVKGRFTISRDNAKNTVYLQMNSLKPEDTAVYYCAAETVTRSFYSEYDYWGQGTQVTVSS", "polyreactivity (PSR sort gate)": "low polyreactivity"},
      {"sequence": "QVQLVESGGGLVQAGGSLRLSCAASGFTFGGYAMGWYRQAPGKESEFVAAITGTGGNTFYADSVKGRFTISRDNAKNTVYLQMNSLKPEDTAVYYCAKTWYPWSRYGYYRRYDSWGQGTQVTVSS", "polyreactivity (PSR sort gate)": "low polyreactivity"},
      {"sequence": "QVQLVESGGGLVQAGGSLRLSCAASGFTFGHYVMGWYRQAPGKERELVAAITLSGGGTYYADSVKGRFTISRDNAKNTVYLQMNSLKTEDTAVYYCAAVRRAEEFDYWGQGTQVTVSS", "polyreactivity (PSR sort gate)": "low polyreactivity"},
      {"sequence": "QVQLVESGGGLVQAGGSLRLSCAASGFTFGLNVMGWYRQAPGKERELVAAISQSGGSTYYADSVKGRFTISRDNAKNTVYLQMNSLKPEDTAVYYCAVDYYPNPSYTVYDDEYWGQGTQVTVSS", "polyreactivity (PSR sort gate)": "low polyreactivity"},
      {"sequence": "QVQLVESGGGLVQAGGSLRLSCAASGFTFGLYAMGWYRQAPGKERELVAAITWSGGSTYYADSVKGRFTISRDNAKNTVYLQMNSLKPEDTAFYYCNRLSNNREYDYWGQGTQVTLSS", "polyreactivity (PSR sort gate)": "high polyreactivity"},
      {"sequence": "QVQLVESGGGLVQAGGSLRLSCAASGFTFGLYAMGWYRQAPGKERELVAVISSSGGSTYYADSVKGRFTISRDNAKNTVYLQMNSLTPEDTAVYYCAKDFEAGDDYFAYDYWGQGTQVTVSS", "polyreactivity (PSR sort gate)": "low polyreactivity"},
      {"sequence": "QVQLVESGGGLVQAGGSLRLSCAASGFTFGLYGMGWYRQAPGKERELVAAISSSGGDTYYADSVKGRFTISRDNAKNTVYLQMNSLKPEDTAVYYCAATADWATHDYWGQGTQVTVSS", "polyreactivity (PSR sort gate)": "low polyreactivity"},
      {"sequence": "QVQLVESGGGLVQAGGSLRLSCAASGFTFGLYGMGWYRQAPGKERELVAAISSSGGDTYYADSVKGRFTISRDNAKNTVYLQMNSLKPEDTAVYYCAATADWATYDYWGQGTQVTVSS", "polyreactivity (PSR sort gate)": "low polyreactivity"},
      {"sequence": "QVQLVESGGGLVQAGGSLRLSCAASGFTFGNAMGWYRQAPGKERELVAAITVNGGTTNYADSVKGRFTISRDNAKNTVYLQMNSLKPEDTAVYYCNVDTSYGAAGDYWGQGTQVTVSS", "polyreactivity (PSR sort gate)": "low polyreactivity"},
      {"sequence": "QVQLVESGGGLVQAGGSLRLSCAASGFTFGPYAMGWYRQAPGKERELVAGITWSGASTYYADSVKGRFTISRDNAKNTVYLQMNSLKPEDTAVYYCARYYRLGSRYDYWGQGTQVTVSS", "polyreactivity (PSR sort gate)": "low polyreactivity"},
      {"sequence": "QVQLVESGGGLVQAGGSLRLSCAASGFTFGRIAMGGYRQAPGKERELVASIDWSGGSTYYADSVKGRFTISRDNAKNTVYLQMNSLKPEDTAVYYCAVGPNSVGNRSYGFDYWGQGTQVTVSS", "polyreactivity (PSR sort gate)": "low polyreactivity"},
      {"sequence": "QVQLVESGGGLVQAGGSLRLSCAASGFTFGRYAMGWYRPAPGKERELVPAISFSGGRTYYADSVKGRFTISRDNAKNTVYLQMNCMKPEDTAVYYCAARRSEEHVGRSTYARYDYWGQGTQVTVSS", "polyreactivity (PSR sort gate)": "high polyreactivity"},
      {"sequence": "QVQLVESGGGLVQAGGSLRLSCAASGFTFGRYAMGWYRQAPGKEREFVAGITWSGGSTSYADSVKGRFTISRDNAKNTVYLQMNSLKREDTAVYYSATRARYTRVHGRRYAYDYWGQGTQVTVSS", "polyreactivity (PSR sort gate)": "high polyreactivity"},
      {"sequence": "QVQLVESGGGLVQAGGSLRLSCAASGFTFGRYAMGWYRQAPGKERELVAAISRTGGRTYYADSVKGRFTISRDNAKNTVYLQMNSLKPEDTAVYYCAADKGGTYFNGDSWGQGTLVTVSS", "polyreactivity (PSR sort gate)": "high polyreactivity"},
      {"sequence": "QVQLVESGGGLVQAGGSLRLSCAASGFTFGRYARGWYRQAPGKERELVAAISRGGSSTYYADSVKGRFTISRDNAKNTVYLQMNSLKPEDTAVYYCNKVIIWARFDYWGQGTQVTVSS", "polyreactivity (PSR sort gate)": "high polyreactivity"},
      {"sequence": "QVQLVESGGGLVQAGGSLRLSCAASGFTFGSNAMGWYRQAPGKERELVAAISSGDSTHYADSVKGRFTISRDNAQNTVYLQMNSLKPEDTAVYYCNADNILYWSTLDYWGQGTQVTVSS", "polyreactivity (PSR sort gate)": "low polyreactivity"},
      {"sequence": "QVQLVESGGGLVQAGGSLRLSCAASGFTFGSNAMGWYRQAPGKERELVADITVSGGSTYYADSVKGRFTISRDNAKNTVYLQMNSLKPEDTAVYYCAKDPRTYLDYDYWGQGTQVNVSS", "polyreactivity (PSR sort gate)": "low polyreactivity"},
      {"sequence": "QVQLVESGGGLVQAGGSLRLSCAASGFTFGSNTMGWYRQAPGKERELVAAITTSGDSTYYADSVKGRFTISRDNAKNTVYLQMNSLKPEDTAVYYCAARTYYQGGYYYWGPGTQVTVSS", "polyreactivity (PSR sort gate)": "high polyreactivity"},
      {"sequence": "QVQLVESGGGLVQAGGSLRLSCAASGFTFGSYAMGWYRQAPGKERELVAAITYRGGSTYYADSVKGRFTISRDNAKNTVYLQMNSLKPEDTAVYYCAADSRRKGNYWGQGTQVTVSS", "polyreactivity (PSR sort gate)": "high polyreactivity"},
      {"sequence": "QVQLVESGGGLVQAGGSLRLSCAASGFTFGTYAMGWYRQAPGKERELVAAISARGGSTYYADSVKGRFTISRDNAKNTVYLQMNSLKPEDTAVYYCAAYYGRHVTPPTGYDYWGQGTQVTVSS", "polyreactivity (PSR sort gate)": "high polyreactivity"},
      {"sequence": "QVQLVESGGGLVQAGGSLRLSCAASGFTFGTYAMGWYRQAPGKERELVAAITDGGGSTYYADSVKGRFSISRDNAKNTVYLQMNSLKPEDTAVYYCAAEFGYGWYTWLTGNDYWGQGTQVTVSS", "polyreactivity (PSR sort gate)": "low polyreactivity"},
      {"sequence": "QVQLVESGGGLVQAGGSLRLSCAASGFTFGTYNMGWSRQAPGKERELVASISRRGGRTDYADSVKGRFTISRHNAKNTVYLQMNSLKPEDTAVYYCNAAYPYGGFPYDYWGQGTQVTVSS", "polyreactivity (PSR sort gate)": "high polyreactivity"},
      {"sequence": "QVQLVESGGGLVQAGGSLRLSCAASGFTFGVYAMGWYRQAPGKERELVAAISTTVGSTYYADSVKGRFTISRDNAKNTVYLEMNSLKPEDTAVYYCAAEYTGYINYYIYEYWGQGTQVTVSS", "polyreactivity (PSR sort gate)": "low polyreactivity"},
      {"sequence": "QVQLVESGGGLVQAGGSLRLSCAASGFTFGVYAMGWYRQAPGKERELVAAITATGGSTYYADSVKGRFTISRDNAKNTVYLQMNSLKPEDTAVYYCAADLDGTLSVYDYHTTGDDYWGQGTQVTVSS", "polyreactivity (PSR sort gate)": "low polyreactivity"},
      {"sequence": "QVQLVESGGGLVQAGGSLRLSCAASGFTFGVYAMGWYRQAPGKERELVAAITRSGGSTYYADSVKGRFTISRDNAKNTVYLQMNSLKPEDTAVYYCASRARDHYGYWGQGTQVTVSS", "polyreactivity (PSR sort gate)": "high polyreactivity"}
    ]}
  ]
}
